PMC3731272, “Evidence for a Novel Mechanism of the PAK1 Interaction with the Rho-GTPases Cdc42 and Rac” (PLoS ONE, 2013)

Target: T1, GFP-PAK1^S79A (UniProt Q13153 1-545, S79A)
T1 construct: source: 293T cells, expressed, in cell extract / lysate
Experiment: co-IP; GFP-PAK1 (WT or S79A) coexpressed with Myc-Cdc42 in 293T cells; extracts immunoprecipitated with anti-GFP, blotted with anti-Myc; lysis buffer 50 mM HEPES pH 7.4, 150 mM NaCl, 1 mM EDTA, 10% glycerol, 1% Triton X100 with phosphatase inhibitors; antibodies overnight at 4°C
Conditions: partners not purified

T1 sequence (Q13153 whole entry S79A): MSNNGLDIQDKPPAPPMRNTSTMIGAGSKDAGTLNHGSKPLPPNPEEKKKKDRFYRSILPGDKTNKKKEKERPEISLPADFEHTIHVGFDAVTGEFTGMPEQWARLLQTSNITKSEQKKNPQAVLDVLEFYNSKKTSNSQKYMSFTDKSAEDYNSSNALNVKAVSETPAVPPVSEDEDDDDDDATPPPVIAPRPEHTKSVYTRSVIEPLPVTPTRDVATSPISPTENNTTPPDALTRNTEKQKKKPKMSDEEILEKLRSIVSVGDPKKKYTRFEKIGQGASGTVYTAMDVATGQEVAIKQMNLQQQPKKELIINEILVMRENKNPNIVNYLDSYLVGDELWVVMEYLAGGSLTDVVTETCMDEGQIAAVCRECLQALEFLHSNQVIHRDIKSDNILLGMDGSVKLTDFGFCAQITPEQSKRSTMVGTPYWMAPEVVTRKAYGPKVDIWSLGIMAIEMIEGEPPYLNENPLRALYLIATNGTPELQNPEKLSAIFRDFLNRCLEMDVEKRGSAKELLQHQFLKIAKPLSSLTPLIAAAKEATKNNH

- fold reduction of binding against wild type PAK1: ~3 fold
B1: Myc-Cdc42 (natural protein)
chain: not shown
notes: Rho GTPase Cdc42; source: 293T cells, coexpressed, in cell extract
